# Results reported in the nanobody polyreactivity screen of Harvey et al. (2022).
# Experiment: yeast display, Sf9 membrane polyspecificity reagent, FACS + sequencing; frameworks hold sequencing errors
# Method in brief: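 A nanobody's polyreactivity label depends on the gate it was sorted from. Yeast display cells were stained with 10% biotinylated, detergent-solubilized Sf9 membrane reagent for 1 hour at 4 °C, enriched on streptavidin microbeads and sorted by FACS. The low and high (top ~1%) gates were set on anti-HA fluorescence for expression and streptavidin fluorescence for reagent binding.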
row,Sequence,polyreactivity (PSR sort gate)
1,QVQLVESGGGLVQAGGSLRLSCAASGFTFHKNAMGWYRQAPGKERELVAGISRRAGSTYYADSVKGRFTISRDNAKNTVYLQMNSLKPEDTAVYYCATDRARTGALYYWGQGTQVTVSS,high polyreactivity
2,QVQIVESGGGIVQAGGSLRLSCAASGIIFSGYVMGWYRQAPGKERQLVAAISSGGSKYYADSVKGRFTISRDNAKNTFYLQINSLKPEDTEVYYCAAAGYWTLGYGYWGQGTQVTVSS,low polyreactivity
3,QVQLQESGGGLVQAGGSLRLSCAVSGTIFFPLDMGWYRQAPGREREYVAAIAEGTSTYYADSVKGRFTISRDNAKNTVYPQMYSLKPEDTAVYYCAAYRSTPQQFHYWGQGTQVTVSS,high polyreactivity
4,QVQLVESGGGLVQAAGSLRLSCAASGSIFSTYAMGWYRQAPGKERELVAAINRGTSTNYADSVKGRFTISRDNAKNTVYLQMNSLKPEDTAVYYCAAYYRGRYGPRRSEYWGQGTQVTVSS,high polyreactivity
5,PVQLVVSGGGLVQAGGSLRLRGAASGSSFSQNAMGWSRPAPGKDRELVAAITSGGITYYADSVKGRFTISRDNAKNTVYLQMNSLKPEDTAVYDCAADYWPSGRGVAFDYWGQGTQVTVSS,low polyreactivity
6,QVQLVESGGGLVQAGGSLRLSCAASGSIFRGNAMGWYRQAPGKERELVAAISGSAGRTYYADSVKGRFTISRDNAKNTVYLQMNSLKPEDTAVYYCAADSFKGYDYWGQGTQVTVSS,high polyreactivity
7,QVQLVESGGGLVQAGGSLRLSCAASGSIFGSYAMGWYRQAPGKERELVAAISRRGGSTYYADSVKGRFTISRDNAKNTVYLQMNSLKPEDTAVYYCAARWPTGRNGYWGQGTQVTVSS,high polyreactivity
8,QVQLQESGGGLVQAGGSLRLSCAASGSIFDYVSMGWYRQAPGEERELVVTITLGSNTYYADSVKGRFTISSDIAKNTVYLQMNSLNPEDTAVYYCAPSALWGYVYPYWGLGTQVTVSS,high polyreactivity
9,QVQLVESGGGLVQAGGSLRLSCAASGGTFALNAMGWYRQAPGKERELVADIDGRGGSTYYADSVKGRFTISRDNAKNTVYLQMNSLKPEVTAVYYCAARAPFLSVPSELDYWGQGTQVTVSS,low polyreactivity
10,QVQLVESGGRLVQAGGSLRLSCAASGRIFRGYAMGWYRQEPGKERELVAAISQSGSSTYYADSVKGRFTISRDNAKNTVYLQMNSLKPEDTAVYYSAVIYVKHFGYWGLGTQVTVSS,high polyreactivity
11,QVQLVEAGGGLVQAGGSLRLSCAASGSTLVYNDMGWYRQAPGKEREFVAAIRSNDGSTYYADSVKGRFTISRDNAKNTVYLQMNSLKPEDTAVYFCNKDVWDGYDWPEFDYWGQGTQVTVSS,low polyreactivity
12,QDLLVESGAGLVQAGGSVRLSCAASGRIVYTYAMAWYRQAPGIERELVAVISSGGSTYYADSVKGRFTNSRDNAKNTVYLQMNSLTPEDTAVYYCAAYGTKWGRGFYITGYGYWGQGTQVTVSS,low polyreactivity
13,QVQLVESGGGLVQAGGSLRLSCAASGFIFYKYAMGWYRQAPGKERELVAGITWNVGSTYYADSVKGRFTISRDNAKNTVYLQMNSMKPEDTAVYYCAARHSYLGGTISLLYDYWGQGTQVTVSS,low polyreactivity
14,QVQLVESGGGLVQAGGSLRLSCAASGSIFGIYAMGWYRQAPGKERELVAAISSSGSTNYADSVKGRFTISRDNAKNTVYLQMNSLKPEDTAVYYCAAEQLSARWAYYYWGQGTQVTVSS,low polyreactivity
15,QVQLVESGGGLVQAGGSLRLSCAASGRIFPFYAMGWYRQAPGKERELVAAITSSGGRTYYADSVKGRFTISRDNAKNTVYLQMNSLKPEDTAVYYCAAGHGGYYRYFSQRDYWGQGTQVTVSS,low polyreactivity
16,QVQLVESGGVLVQAVGSLRLSCAASGRIFYPYVMGWYRPAPGKERELVASITSGGGTYYADSVKGRFTISRDNAKNTVYLQMNSLKPEDTAGYYCNALAIWSEDWDHWISYADDYSGQGTQVTVSS,low polyreactivity
17,QVQLQESGGGLEQAGGSLRLSCAASGYISDIGTMGWYRQAPGKEREFVATIVVGSTTNYADSVKGRFTISRDNAKNTVYLKPESGRYRGVLLRGWLLAVGKFTYWGQGTQETVSS,low polyreactivity
18,QVQLVESGGGLVQAGGSLRLSCAASGIIFDVYAMGWYIQAPGKERELVAAISSGGSTYYADSVKGRFTISRDNAKNTVYLQMNSLKPEDTAVYYCATAQSVIYRYEYWGQGTQVTVSS,low polyreactivity
19,QVQLVESGGGLVQAGGSLRLSCAASGRTFAVYAMGWYRQAPGKERELVAAITLGASRTYYADSVKGRFTISRDNAKNTVYLQMNSLKPEDTAVYYCNAVGRRNVDSSLNDYWGQGTQVTVSS,low polyreactivity
20,QGKLVESGGGLVQAGGSLRLTCPASGSIFRLNTMGWYRQAPGKEREFVAAISKGGTSTYYADSVKGRFTISRDNAKNTVYLQLTSLIPEDTAVYYCARKRYPSAPFQYDYWGQGTQVTVSS,high polyreactivity
21,QVQLVESGGGLVQAGGSLRLSCAASGSTFVHNAMGWYRQAPGKERELVAAISESGGGTYYADSVKGRFKISRDNAKNTVYLQMNSQKPEDTAVYYCAAPPAGENWRDGGGYFGQGTQVTVSS,low polyreactivity
22,QVHLVESGGGLVQAGGSLRLSCAASGNIIPGNAMGWYRQAPGKERELVAAISYSGVRTHYADSVKGRFTISRDNAKNTVYLQMNSLKPEDTAVYYCAASGEQDYDYWGQGTQVTVSS,low polyreactivity

row,Sequence,polyreactivity (PSR sort gate)
1,QVQLVESGGGLVQAGGSLRLSCAASGSNFVVYAMGWYRQAPGKERELVAAISWGIGSTYYADSVKGRFTISRDNAKNTVYLHMNSLKPQDTAVYYCAADTDIVLYDYWGQGTQVTVSS,low polyreactivity
2,QVQLVESGGGLVQAGGSLRLSCAASGRTIGPYVMGWYRQAPGKERELVAAITYIGDRTYYADSVKGRFTISRDNAKNTVYLQMNSLKPEDTAVYYCNADFFSRWGYRYMDYWGQGTQVTVSS,low polyreactivity
3,QVQLVESGGGLVQAGGSLRLSCAASGSTFYSYAMGWYRQAPGKERELVAAITSGGSTNYADSVKGRFTISRDNAKNTVYLQMNSLKPEDTAVYYCARKYWHRSYGYDYWGQGTQVTVSS,low polyreactivity
4,QVQLVESGGGLVQAGGSLRLSCAASGFTLDDNGMGWYRQAPGKERELVASITWSGGSTYYADSVKGRFTISRDNAKNTVYLQMNSLKPEDTAVYYCNVGDPIGGFLSYWGGDYWGQGTQVTVSS,low polyreactivity
5,QVQLVESGGGLVQAGGSLRLSCAASGFTFRKKAMGWYRQAPGKERELVAAIRGSAGSTYYADSVKGRFTNSRDNAKITVYLQMNSLQQEDTAVYYCATGGYPSLWYGYGYWGQGTQVTVSS,low polyreactivity
6,QVQLQEIGGGLVQAGGSLRLSCAATGSIFVSVTMGWYRQAPGKERELVASIGRGSTTNHADSVKGRFTISRDNAKNIVYLLMNSLKPEDTAVYYCAALESYGKYHGYWGQGTQVTVSS,low polyreactivity
7,QVQLVESCGGLVQAGGSLRLSCAASGLTFIFNAMGWYRQAPGKEREFVADISSGVNTNYADSVKGRFTISRDNAKNTVYLQMNSLKPEDTAVYYCNKDVNAYGGASIRGYTMYYWGQGTQVTVSS,low polyreactivity
8,QVQLVESGGGLVQAGGSLRLSCAASGLTVYYYAMGWYRQAPGKERELVASISRSGGSTYYADSVKGSFTISRDNAKNTVYLQMNSLKPEDTAVYYCNVSVYRCTVKGTFDMDHWGQGTQVTVSW,high polyreactivity
9,QVQLVESVGGLVQAGGSLRLSCAASGSTLYQYAMGWYRQAPGKERELVAAITKSGGRTYYADSVKGRFTISRDNAKNTVYLQMNSLKPEDTAVYYCNVVRGSYSSGGDYWGQGTQVTVSS,high polyreactivity
10,QVQLVESGGGLVQAGGSLRLSCAASGSTFRGNAMGWYRQAPGKERELVATISRSNGGSTYYADSVKGRFTISRDIAKNTVYLQMNSLKPEDTEVYYCAARSYIGISTYGYWGLGTQVTVSS,low polyreactivity
11,QVLLVESGGGLVQAGGSLRLSCAASGSTFNYNAMGWYRQAPGKERELVAVITSGGRTNYADSVKGRFTISRDNAKNTVYLQMNSLKPEDTAVYSCNAEHVSYHFNLKYSGESWGQGTQVTVSS,low polyreactivity
12,QVQLVESGGGLVQAGGSLRLSCAASGSIFWIYAMGCYRQAPGKERELVATITRRGGSTYYADSVKGRFTISRDNAKNTVYLQMNSLKPEDTAVYYCATEPGYTYLTSYKYDYWGQGTQVTVSS,low polyreactivity
13,QVQLVESGGGLVQAGGSLRLICAASGFIFRRYDMGWYRQAPGKERELVATITASVGSTNYADSVKGRFTISRDNAKNTVYLQMNSLKPEDTAVYYCATDIIGAIRVWDHTRMDYWGQGTQVTVSS,low polyreactivity
14,QVQLVESGGGLVQAGGSLRLSCAASGRTFADYGMGWYRQAPGKERELVAAITSSGGSTYYADSVKGRFTISRDNAKNTVYLQMNSLKPEDTAVYYCAAQQSPSVDYWGQGTQVTVTS,low polyreactivity
15,QVQLVESGGGLVQAGGSLRLICAATGITFITYVMGWYSQAPGKERELVAAISLRGGRTSYADSVKGRFTISRDNAKNTVYLQMNSLKPEDTAVYYCAARGGAYQNAYEYDYWGPGTQVTVSS,high polyreactivity
16,QVQLVESGGGLVQAGGSLRLSCAASGRIFDLNVMGWYRQAPGKERELVAAIRSGGRTNYADSVKGRFTISRDNAKNTVYLQMNSLKPEDTAVYYCNVRRGYWHPRYGWANYDYWGQGTQVTVSS,high polyreactivity
17,QVQLVESGGGLFQAGGSLRLSCAATGRIFYSNAMGWYRQAPGKERELVAAINSRGGRTYYADSLKGRFTISRDNAKNTVYLQMNSLKPEDTAVYYCAAPTGPKGYYSDRGDSWGQGTQVTVSS,high polyreactivity
18,QVQLVESGGGLVQAGGSLRLSCAASGGTLASYAMGRYRQATGKERELVAAITRGGGSTHYADSVKGRFTISRDNAKNTVYLQMNSLKPADTAVYYCNARVRPGYGYWGQGTQVTVSS,high polyreactivity
19,QVQLVESGGGLVQAGGSLRLSCAASGSTFSGYTMGWYRQAPGKEREFVAAISVSGGSTYYADSVKGRFTISRDNAKNTVYLQMNSLKPEDTAVYYCNTVTSGFLSYDYWGQGTQVTVSS,high polyreactivity
20,QVQLVESGGGLVQAGGSLRLSCAASGSIFYYNAMGWYRQAPGKERELVATIRSGGNTNYADSVKGRFTISRDNAKNTVYLQMNSLKPEDTAVYYCAARGAYHGYRYDSWGQGTQVTVSS,low polyreactivity
21,QVQLVESGGGLVQAGGSLRLICAASGLIFVSYAMGWSRQAPGKERELVAAITYGGDSTFYADSVKGRFTISRDNAKNTVYLQMNSLKPEDTAVYYCNADIWFIWHSFGWGYDYWGQGTQVTVSS,low polyreactivity
